The target in assay [1] is T1, human tau oligomers (human, UniProt P10636-6 2-383, limits assumed). Put plainly: cell-based or functional assay.
For assay [2], the target named is T2, biotinylated 15 amino acid tau peptide, residues 383-397 (human).
T2 peptide: Biotin-KAKTDHGAEIVYKSP
Nature of the assay: ELISA, biotinylated peptide on streptavidin plate. On the procedure: (§1) Peptides contained 15 amino acids, with a 5 amino acid overlap. To enable binding to a streptavidin surface, peptides also contained an N-terminal biotin. Peptides were incubated on a streptavidin-coated plate, and the plate was blocked with 1% BSA in 1× PBS. After washing, antibodies were incubated on the plates for 1 hour at room temperature and washed. Plates were then coated with goat anti-mouse horseradish peroxidase (HRP), and washed. Plates were developed with OPD, and absorbance was read at 490 nm. […]
A general note: ELISA stands for enzyme-linked immunosorbent assay.

In assay [3] the target is T3, biotinylated 15 amino acid tau peptide, residues 302-316 (human).
T3 peptide: Biotin-GGGSVQIVYKPVDLS
Nature of the assay: ELISA, biotinylated peptide on streptavidin plate. As to the method: as §1

The target of assay [4] is T1, human tau oligomers. Nature of the assay: cell-based or functional assay. The source holds these as a separate data set.
Assay [5] concerns the target T4, recombinant human 4R0N tau (human, UniProt P10636 2-758).
T4 construct: also called recombinant 4R0N human tau; P10636-6
Nature of the assay: SPR Biacore; antibody captured by anti-mouse antibody; tau as analyte; global 1:1 fit. On the procedure: Surface plasmon resonance (SPR) analysis using Biacore was performed by immobilizing an anti-mouse (GE Lifesciences) antibody to a CM3 chip with EDC/NHS. Antibodies were then captured to the anti-mouse surface to equivalent levels. Regeneration was performed with 2 30 s injections of 10 mM Glycine pH 1.7. Various concentrations ranging from 500 to 0.122 nM, diluted in […] dilutions, of recombinant human 4R0N tau were flowed over the sensor for a 150s association phase and 300 s dissociation phase. Data was blank subtracted to both an irrelevant sensor not containing test antibody to account for irrelevant binding to the prepared sensor surface, and to the mobile phase vehicle to account for the dissociation of test antibody from the anti-mouse capture. Data was then analyzed with onboard evaluation software using a global 1:1 fit.
(In general: SPR reads the build-up and loss of mass on a sensor chip optically.)

Where no end group is shown, it is not given here. The star is where a group is joined. Biotin = O=C1N[C@H]2[C@H](CS[C@H]2CCCCC(=O)*)N1

In general, Kd refers to the free concentration of one partner at which half of the binding sites on the other are occupied at equilibrium, for simple one-to-one binding. As usually defined, the koff is the first-order rate constant of dissociation. A word on the kon: it is the second-order rate constant of association.

T4 sequence (P10636 other isoform, or with tags, fused parts or gaps limits assumed): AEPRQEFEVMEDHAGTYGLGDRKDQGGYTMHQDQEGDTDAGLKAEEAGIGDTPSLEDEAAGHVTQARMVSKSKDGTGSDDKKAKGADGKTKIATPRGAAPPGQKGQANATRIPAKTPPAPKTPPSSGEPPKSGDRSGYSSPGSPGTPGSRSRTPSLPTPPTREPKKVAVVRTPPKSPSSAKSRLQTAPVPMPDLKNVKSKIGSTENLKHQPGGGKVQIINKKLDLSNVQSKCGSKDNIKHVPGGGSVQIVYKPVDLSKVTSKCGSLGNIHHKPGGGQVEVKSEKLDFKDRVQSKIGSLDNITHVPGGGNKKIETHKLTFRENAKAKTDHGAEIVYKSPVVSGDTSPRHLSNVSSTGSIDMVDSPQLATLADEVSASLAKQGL
T1 sequence (P10636 other isoform, or with tags, fused parts or gaps limits assumed): as above

B1: mouse 2D11 antibody (antibody, mouse IgG2a, V domains shown)
VH: EVQLQQSGAELVRPGASVKLSCTASGFNIKDDYMNWVKQRPERGLEWIGWIDPENGDTEYASKFQGKATMTADTSSNTAYLQFSSLTSEDTAVYYCTTSNGWGQGTLVTVST
VL: DIVMTQAAFSNPVTLGTSASISCRSSKSLLHSNGITYLYWYLQKPGQSPQLLIYQMSNLASGVPDRFSSSGSGTDFTLRISRVEAEDVGVYYCAQNLELPLTFGAGTKLELK
Turning to B1, in the assay with human tau oligomers [1], the “MTT viability of primary neurons with tau oligomers, antibody at 0.2 molar equivs” value (from here on “MTT viability … at 0.2 molar equivs”) is 52.8 % of control; the “MTT viability of primary neurons with tau oligomers, antibody at 0.33 molar equivs” value (“MTT viability … at 0.33 molar equivs” below) was 59.5 % of control; the “MTT viability of primary neurons with tau oligomers, antibody at 1 molar equivs” value (“MTT viability … at 1 molar equivs” below) was 50.9 % of control; the “MTT viability of primary neurons with tau oligomers, antibody at 3 molar equivs” value (“MTT viability … at 3 molar equivs” for short) is 64 % of control. In the assay with human tau oligomers [1], the “MTT viability of primary neurons with tau oligomers, antibody at 5 molar equivs” value (from here on “MTT viability … at 5 molar equivs”) was 92.2 % of control. For the same molecule, in assay [2], the binding result is recorded as “binds”. In addition, in assay [3], the binding result is listed as “binds”. For the same molecule, in the assay with human tau oligomers [4], the “LDH released by primary neurons with tau oligomers, antibody at 0.2 molar equivs” value (from here on “LDH released … at 0.2 molar equivs”) is 177 % of control; the “LDH released by primary neurons with tau oligomers, antibody at 0.33 molar equivs” value (shortened to “LDH released … at 0.33 molar equivs”) was 148 % of control; the “LDH released by primary neurons with tau oligomers, antibody at 1 molar equivs” value (“LDH released … at 1 molar equivs” for short) is 131 % of control; the “LDH released by primary neurons with tau oligomers, antibody at 3 molar equivs” value (“LDH released … at 3 molar equivs” for short) is 109 % of control. For the same molecule, in the assay with human tau oligomers [4], the “LDH released by primary neurons with tau oligomers, antibody at 5 molar equivs” value (“LDH released … at 5 molar equivs” for short) was 115 % of control. In assay [5], the Kd was determined as 0.318 nM, the koff is 0.00221 s⁻¹ and the kon amounted to 6.93e+06 M⁻¹ s⁻¹.

B2: mouse 9F5 antibody (antibody, mouse IgG1, V domains shown)
VH: EVQLQQSGAELVRPGASVKLSCTASGFNIKDDYMNWVKQRPERGLEWIGWIDPENGDTEYASKFQGKATMTADTSSNTAYLQFSSLTSEDTAVYYCTTSNGWGQGTLVTVST
VL: DIVMTQAAFSNPVTLGTSASISCRSSKSLLHSNGITYLYWYLQKPGQSPQLLIYQMSNLASGVPDRFSSSGSGTDFTLRISRVEAEDVGVYYCAQNLELPLTFGAGTKLELK
notes: also called m9F5; murine 9F5
Regarding B2, in the assay with human tau oligomers [1], the “MTT viability … at 0.2 molar equivs” value was 47.4 % of control; the “MTT viability … at 0.33 molar equivs” value was 58 % of control; the “MTT viability … at 1 molar equivs” value is 64.9 % of control; the “MTT viability … at 3 molar equivs” value is 92.6 % of control. Also, the “MTT viability … at 5 molar equivs” value in the assay with human tau oligomers [1] is 93.1 % of control. The binding result in assay [2] is on record as “binds”. For the same molecule, in assay [3], the binding result was “binds”. In the assay with human tau oligomers [4], the “LDH released … at 0.2 molar equivs” value was 155 % of control; the “LDH released … at 0.33 molar equivs” value was 152 % of control; the “LDH released … at 1 molar equivs” value was 116 % of control; the “LDH released … at 3 molar equivs” value was 95.9 % of control. In addition, the “LDH released … at 5 molar equivs” value with human tau oligomers [4] is 91.4 % of control. Moreover, in assay [5], the Kd was 0.35 nM, the koff is 0.00224 s⁻¹ and the kon was 6.39e+06 M⁻¹ s⁻¹.

B3: mouse 12C4 antibody (antibody, mouse IgG2a, V domains shown)
VH: EVQLQQSGAELVRPGASVKLSCTASGFNIKDDYMNWVRQRPERGLEWIGWIDPENGDTAYASKFQGKATMTADTSSNTAYLQFSSLTSEDSAVYYCTTSNGWGQGTLVTVSA
VL: DIVMTQAAFSNPVTLGTSASISCRSSKSLLHSNGITYLYWYLQKPGQSPQLLIYQMSNLASGVPDRFSSSGSGTDFTLRISRVEAEDVGVYYCAQNLELPLTFGAGTKLELK
notes: also called m12C4
With B3, in the assay with human tau oligomers [1], the “MTT viability … at 0.2 molar equivs” value was 48.6 % of control; the “MTT viability … at 0.33 molar equivs” value was 53.2 % of control; the “MTT viability … at 1 molar equivs” value is 62.3 % of control; the “MTT viability … at 3 molar equivs” value was 78.7 % of control. Moreover, in the assay with human tau oligomers [1], the “MTT viability … at 5 molar equivs” value was 81.1 % of control. In addition, in assay [2], the binding result was “binds”. Besides, the binding result in assay [3] is listed as “binds”. In addition, in the assay with human tau oligomers [4], the “LDH released … at 0.2 molar equivs” value was 153 % of control; the “LDH released … at 0.33 molar equivs” value was 152 % of control; the “LDH released … at 1 molar equivs” value is 124 % of control; the “LDH released … at 3 molar equivs” value was 110 % of control. Further, the “LDH released … at 5 molar equivs” value with human tau oligomers [4] is 108 % of control. For the same molecule, in assay [5], the Kd came out at 0.363 nM, the koff was 0.00206 s⁻¹ and the kon is 5.69e+06 M⁻¹ s⁻¹.

The record behind these values is US20220275067A1 (PROTHENA BIOSCIENCES, published 2022).
